Laboratory results as given in patent US20260216354A1, “ANTI-CMET ANTIBODY, ANTIBODY-DRUG CONJUGATE, AND PREPARATION METHOD THEREFOR AND USE THEREOF” (MEDILINK THERAPEUTICS (SUZHOU) CO., LTD., priority 2022, published 2026).
Changes are numbered by the printed parent chain.

B1: 44H10E8: murine-derived anti-cMET monoclonal antibody; VL SEQ ID NO: 5, VH SEQ ID NO: 6 (antibody, V domains shown)
VH: QVHLQQSGAELARPGASVKMSCKASGYTFISYTIHWVKQSPGQGLEWIGYINPSSGYAKNNPKFQDKATLTADTSSTTAYIQLSSLTSEDSAVYYCTRPYGDFVDWYFDVWGTGTTVTVSS
VL: NIMMTQSPSSLAVSAGEKVTMNCKSSQSVLYFSNQKNCLAWYQQKPGQSPKLLIYWASTRESGVPDRFTGSGSGTDFTLTISSVQADDLAVYYCQQYLSSLTFGAGTKLELK
B2: 55A10G6: murine-derived anti-cMET monoclonal antibody; VL SEQ ID NO: 3, VH SEQ ID NO: 4 (antibody, V domains shown)
VH: QIQLQQSGPELVKPGASVKISCKASGYTFTDYYLNWVRQRPGQGLEWIGWIFPGSGNTKYIEKFKGKATLTVDTSSSTAYMLLSSLTSEDSAVYFCAGGDYGGFTYWGQGTLVAVSA
VL: DIQMTQSPPSLSASVGETVTITCGASENIYGALNWYQRKQGKSPQLLIYGATNLAAGMSSRFSGSGSGRQFSLKISSLHPDDVATYYCQNVLSEPLTFGAGTKLELK
B3: 45A5G10: murine-derived anti-cMET monoclonal antibody; VL SEQ ID NO: 1, VH SEQ ID NO: 2 (antibody, V domains shown)
VH: EVRLEESGGGFVQPGGSMKISCVASGFTFSNYWMNWVRQSPEKGLEWVAQIRLKSLNYATHYAESVKGRFTISRDDSRNSVYLQMNNLRAEDAGIYYCTEEGFAYWGRGTLVTVSA
VL: IVMTQSPASLPVSLGQRATISCRASESVDDYGVSFVNWFQQKPGQPPKLLIYTASVQESGVPARFSGSGSGTDFSLNIHPLEEDDTAMYFCQQSKEIPPTFGGGTKLEIK
B4: 41F5B2: murine-derived anti-cMET antibody of Table 1; probably clone 51D5B2 (VL SEQ ID NO: 7, VH SEQ ID NO: 8) (antibody, V domains shown)
VH: B3 VH with E6D
VL: B3 VL with S75R

Molecular target: T1, cMet-ECD-hFc (Homo sapiens, UniProt P08581)
T1 construct: made in house; host or cells: HEK293E
Test: ELISA affinity of murine-derived antibodies to human MET-ECD-hFc
Format: binding
Procedure: (§1) 4 mice, all female, are selected from each of strains of CDT (Vital River), KM (Vital River), and Balb/c (Gempharmatech Co., Ltd.), and are enrolled into a group at about 6 weeks old. Immunization is performed using cMET-His and hcMET-mFc (Sichuan Sibowo Biotechnology Co., Ltd.), and after 2 times of booster immunization, serum titers are detected through ELISA. For a mouse with a higher ELISA protein titer, an affinity titer of tumor cells MKN-45 and a competition FACS titer of MKN45-HGF are detected through FACS. Finally, 1 mouse from each of CD1, KM, and Balb/c is selected, and the spleen and lymph node thereof are used to prepare cell suspensions for hybridoma fusion with SP2/0 mouse myeloma cells. ELISA preliminary screening is performed through human hMET-ECD-hFc antigen proteins, and after the preliminary screening, positive hybridomas are selected to be cloned. Hybridoma cells are cultured in a serum-free medium, and a collected monoclonal supernatant is purified through the ProA filler to obtain murine-derived antibodies. Affinities of the murine-derived antibodies to human MET-ECD-hFc and cyno MET-ECD-hFc proteins are detected through ELISA, and the affinity of the murine-derived antibodies to the MKN45 tumor cells and blocking of MKN45-HGF ligand competition is detected through FACS.

T1 sequence (P08581 25-932): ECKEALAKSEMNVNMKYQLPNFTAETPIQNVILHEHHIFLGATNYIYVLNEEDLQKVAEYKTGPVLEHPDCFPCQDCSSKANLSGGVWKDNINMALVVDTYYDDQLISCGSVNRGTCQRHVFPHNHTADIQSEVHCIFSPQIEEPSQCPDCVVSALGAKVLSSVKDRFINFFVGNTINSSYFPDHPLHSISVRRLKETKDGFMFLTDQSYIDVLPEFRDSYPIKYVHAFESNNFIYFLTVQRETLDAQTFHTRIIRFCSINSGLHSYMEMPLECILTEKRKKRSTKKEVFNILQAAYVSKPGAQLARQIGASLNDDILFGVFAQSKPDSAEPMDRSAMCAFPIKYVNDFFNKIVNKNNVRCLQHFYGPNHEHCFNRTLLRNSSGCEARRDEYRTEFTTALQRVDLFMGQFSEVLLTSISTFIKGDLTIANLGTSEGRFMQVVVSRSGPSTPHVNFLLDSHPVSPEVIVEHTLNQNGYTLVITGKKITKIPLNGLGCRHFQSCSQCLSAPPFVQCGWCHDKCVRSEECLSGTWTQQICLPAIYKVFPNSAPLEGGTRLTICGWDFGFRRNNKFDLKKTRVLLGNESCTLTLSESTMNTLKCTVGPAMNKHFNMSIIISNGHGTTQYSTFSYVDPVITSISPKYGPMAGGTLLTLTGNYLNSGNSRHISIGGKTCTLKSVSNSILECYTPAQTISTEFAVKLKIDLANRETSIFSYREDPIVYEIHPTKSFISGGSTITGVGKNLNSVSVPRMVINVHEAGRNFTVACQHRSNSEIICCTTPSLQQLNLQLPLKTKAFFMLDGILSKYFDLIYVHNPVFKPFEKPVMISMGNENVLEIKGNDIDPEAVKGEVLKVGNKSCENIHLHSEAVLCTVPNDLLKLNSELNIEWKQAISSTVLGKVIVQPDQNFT

B1 was tested. Which “cMet-ECD-hFc (EC50 = ng/ml)” value did it give?
Its value is 15.76 ng/mL.

How did the “cMet-ECD-hFc (EC50 = ng/ml)” value turn out when B2 was run?
Its value is 7.701 ng/mL.

Which “cMet-ECD-hFc (EC50 = ng/ml)” value does the source give for B3 here?
Its value is 6.387 ng/mL.

How did the “cMet-ECD-hFc (EC50 = ng/ml)” value turn out when B4 was run?
Its value is 4.807 ng/mL.

Molecular target: T2, MKN45-HGF (Homo sapiens, UniProt P08581)
T2 construct: MKN45 cells expressing c-MET antigens; endogenous in cells; host or cells: MKN45
Test: FACS blocking of MKN45-HGF ligand competition (murine-derived antibodies)
Format: binding
Procedure: as §1

T2 sequence (P08581 25-1390): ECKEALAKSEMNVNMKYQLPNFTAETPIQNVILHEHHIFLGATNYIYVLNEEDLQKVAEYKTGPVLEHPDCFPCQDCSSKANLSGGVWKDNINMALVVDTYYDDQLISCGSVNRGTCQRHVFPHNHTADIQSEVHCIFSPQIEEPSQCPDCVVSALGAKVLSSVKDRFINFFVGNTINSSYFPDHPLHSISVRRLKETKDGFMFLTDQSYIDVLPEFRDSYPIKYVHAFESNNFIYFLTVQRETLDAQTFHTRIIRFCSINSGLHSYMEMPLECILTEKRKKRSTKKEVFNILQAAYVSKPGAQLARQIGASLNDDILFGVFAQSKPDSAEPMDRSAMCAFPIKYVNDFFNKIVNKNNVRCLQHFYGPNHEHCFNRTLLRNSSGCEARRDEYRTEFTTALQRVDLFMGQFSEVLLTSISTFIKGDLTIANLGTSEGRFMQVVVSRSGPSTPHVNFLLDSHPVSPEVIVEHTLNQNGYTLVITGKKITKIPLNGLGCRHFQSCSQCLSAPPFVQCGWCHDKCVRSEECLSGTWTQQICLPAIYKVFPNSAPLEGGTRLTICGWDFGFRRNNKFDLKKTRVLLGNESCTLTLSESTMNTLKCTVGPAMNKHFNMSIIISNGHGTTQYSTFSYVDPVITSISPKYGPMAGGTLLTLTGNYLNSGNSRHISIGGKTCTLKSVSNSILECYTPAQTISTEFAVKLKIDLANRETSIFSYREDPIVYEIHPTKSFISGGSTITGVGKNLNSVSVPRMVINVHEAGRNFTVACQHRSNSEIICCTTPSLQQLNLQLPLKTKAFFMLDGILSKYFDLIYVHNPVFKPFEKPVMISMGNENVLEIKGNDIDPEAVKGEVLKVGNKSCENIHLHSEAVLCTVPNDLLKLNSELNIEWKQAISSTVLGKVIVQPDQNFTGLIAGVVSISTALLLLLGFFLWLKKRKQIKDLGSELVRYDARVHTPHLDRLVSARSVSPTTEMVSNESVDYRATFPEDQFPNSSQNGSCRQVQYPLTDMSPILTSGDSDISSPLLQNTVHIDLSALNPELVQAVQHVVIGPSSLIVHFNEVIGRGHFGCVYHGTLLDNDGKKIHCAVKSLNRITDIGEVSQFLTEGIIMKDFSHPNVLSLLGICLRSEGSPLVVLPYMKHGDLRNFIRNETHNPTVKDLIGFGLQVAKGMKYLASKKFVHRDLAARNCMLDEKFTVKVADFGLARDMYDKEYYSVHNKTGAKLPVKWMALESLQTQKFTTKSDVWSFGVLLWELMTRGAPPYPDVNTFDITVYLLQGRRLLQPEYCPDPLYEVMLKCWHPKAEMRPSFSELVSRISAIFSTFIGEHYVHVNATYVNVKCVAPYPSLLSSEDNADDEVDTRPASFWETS

With B1 as the molecule, how does the “MKN45-HGF competition (IC50 = ng/ml)” value read?
Its value is 88.57 ng/mL.

With B2 as the molecule, how does the “MKN45-HGF competition (IC50 = ng/ml)” value read?
The value was 31.28 ng/mL.

How did the “MKN45-HGF competition (IC50 = ng/ml)” value turn out when B3 was run?
The value was 53.28 ng/mL.

B4 was tested. Which “MKN45-HGF competition (IC50 = ng/ml)” value did it give?
Its value is “No activity”.

Tested on: MKN45 tumor cells
Test: FACS affinity of murine-derived antibodies to MKN45 tumor cells
Format: binding, human
Procedure: as §1

B1 was tested. Which “MKN45 (EC50 = ng/ml)” value did it give?
Its value is 149.7 ng/mL.

How did the “MKN45 (EC50 = ng/ml)” value turn out when B2 was run?
Its value is 63.08 ng/mL.

For B3, which “MKN45 (EC50 = ng/ml)” value is on record?
Its value is 41.25 ng/mL.

With B4 as the molecule, how does the “MKN45 (EC50 = ng/ml)” value read?
The value was 348.5 ng/mL.

Tested on: Cyno.cMet-ECD-hFc
Test: ELISA affinity of murine-derived antibodies to cyno MET-ECD-hFc
Format: binding
Procedure: as §1

B1 was tested. Which “Cyno.cMet-ECD-hFc (EC50 = ng/ml)” value did it give?
The value was 25.72 ng/mL.

How did the “Cyno.cMet-ECD-hFc (EC50 = ng/ml)” value turn out when B2 was run?
Its value is 14.9 ng/mL.

B3 was tested. Which “Cyno.cMet-ECD-hFc (EC50 = ng/ml)” value did it give?
The value was 10.34 ng/mL.
